# Bridges are numbered along the chain shown (N, C = ends). Where no end group is shown, it is not given here.
# B1: Peptide 6 (SEQ ID NO 6) (peptide)
# peptide: SDMCAAPWLCPV
# modifications: disulfide 4-10 (inferred)
# B2: Peptide 8 (SEQ ID NO 8) (peptide)
# peptide: DSTWTNFRWEFY
# B3: Peptide 7 (SEQ ID NO 7) (peptide)
# peptide: SFNDLLWRWEWP
# B4: Peptide 13 (SEQ ID NO 13) (peptide)
# peptide: TQDNRWEFPLRV
# Molecular target: complement component C5 in pooled human plasma (human, UniProt P01031 19-1676)
# Experiment: cell-based or functional assay
# Sequence of complement component C5 in pooled human plasma (P01031 19-1676 limits assumed): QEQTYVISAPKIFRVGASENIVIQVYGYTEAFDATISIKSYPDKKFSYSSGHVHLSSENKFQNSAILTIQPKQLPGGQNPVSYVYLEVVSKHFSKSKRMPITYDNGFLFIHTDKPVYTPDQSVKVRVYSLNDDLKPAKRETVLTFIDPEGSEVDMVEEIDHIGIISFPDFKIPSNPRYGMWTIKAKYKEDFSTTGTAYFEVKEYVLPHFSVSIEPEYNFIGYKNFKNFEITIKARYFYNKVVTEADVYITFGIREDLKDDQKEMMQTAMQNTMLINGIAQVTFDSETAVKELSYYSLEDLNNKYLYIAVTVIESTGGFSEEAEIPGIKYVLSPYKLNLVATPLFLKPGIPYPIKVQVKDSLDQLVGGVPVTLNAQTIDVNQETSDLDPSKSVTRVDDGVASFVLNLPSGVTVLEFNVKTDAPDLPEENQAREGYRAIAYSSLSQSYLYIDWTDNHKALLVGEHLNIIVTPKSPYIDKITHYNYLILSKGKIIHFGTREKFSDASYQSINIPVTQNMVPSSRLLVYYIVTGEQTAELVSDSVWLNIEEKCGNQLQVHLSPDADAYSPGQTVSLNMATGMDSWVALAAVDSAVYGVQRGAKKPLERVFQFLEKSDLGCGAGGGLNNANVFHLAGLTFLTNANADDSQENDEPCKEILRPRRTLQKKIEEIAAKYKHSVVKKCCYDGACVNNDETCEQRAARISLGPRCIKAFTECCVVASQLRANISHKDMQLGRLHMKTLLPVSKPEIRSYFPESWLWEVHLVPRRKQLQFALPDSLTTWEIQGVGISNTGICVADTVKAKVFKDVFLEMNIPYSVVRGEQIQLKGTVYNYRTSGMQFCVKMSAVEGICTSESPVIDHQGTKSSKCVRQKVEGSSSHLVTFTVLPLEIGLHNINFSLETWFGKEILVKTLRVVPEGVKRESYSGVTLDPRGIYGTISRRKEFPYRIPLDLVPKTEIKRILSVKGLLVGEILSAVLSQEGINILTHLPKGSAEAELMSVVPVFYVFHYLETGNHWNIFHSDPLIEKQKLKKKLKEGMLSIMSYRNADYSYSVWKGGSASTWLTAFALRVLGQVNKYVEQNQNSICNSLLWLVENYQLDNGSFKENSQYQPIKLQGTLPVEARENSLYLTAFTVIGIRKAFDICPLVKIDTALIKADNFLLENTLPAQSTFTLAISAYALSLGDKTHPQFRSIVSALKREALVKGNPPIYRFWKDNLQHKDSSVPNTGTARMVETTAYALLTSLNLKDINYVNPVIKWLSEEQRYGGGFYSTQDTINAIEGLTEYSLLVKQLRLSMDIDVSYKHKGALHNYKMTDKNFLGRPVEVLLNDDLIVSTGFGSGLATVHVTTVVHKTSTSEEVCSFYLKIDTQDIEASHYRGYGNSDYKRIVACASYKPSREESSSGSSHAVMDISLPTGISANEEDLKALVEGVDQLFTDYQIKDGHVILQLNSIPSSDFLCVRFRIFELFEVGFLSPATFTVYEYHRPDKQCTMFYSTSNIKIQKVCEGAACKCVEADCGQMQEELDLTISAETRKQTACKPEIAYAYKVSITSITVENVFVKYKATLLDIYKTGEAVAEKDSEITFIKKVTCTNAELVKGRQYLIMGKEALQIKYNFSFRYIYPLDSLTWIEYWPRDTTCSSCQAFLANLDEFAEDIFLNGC
row,Binder,"IC50 of inhibition of classical pathway hemolysis (antibody sensitized sheep erythrocytes, human plasma) [µM]"
1,B1,3
2,B2,5.8
3,B3,48.9
4,B4,29.2

# From patent US20050090448A1 (BAXTER INTERNATIONAL, published 2005)
